Our source for the mean response and mean normalised binding response (% of wild-type reference) values is paper PMC8691596.

In test [1] the target is mouse FcγRI (CD64), histidine-tagged recombinant (mouse) (UniProt P26151). As to the kind of experiment: SPR; His-tagged Fc receptor captured by anti-histidine antibody immobilised on CM5; antibody injected at 100 μg/mL for 1 min; response about 5 s before end of injection, blank subtracted; 25°C, HBS-EP+; Biacore T200. (In general: In SPR one partner is held on a chip, and binding of the other changes the refractive index at the surface.)
Sequence of mouse FcγRI (CD64), histidine-tagged recombinant (mouse) (P26151 25-297): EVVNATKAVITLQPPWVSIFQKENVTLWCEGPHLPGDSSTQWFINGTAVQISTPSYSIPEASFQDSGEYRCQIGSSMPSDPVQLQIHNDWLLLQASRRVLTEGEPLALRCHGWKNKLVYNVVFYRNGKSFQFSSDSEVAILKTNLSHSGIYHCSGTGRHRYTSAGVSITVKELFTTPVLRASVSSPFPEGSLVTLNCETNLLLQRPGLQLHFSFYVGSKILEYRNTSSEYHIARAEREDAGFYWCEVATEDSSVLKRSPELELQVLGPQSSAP

The target of test [2] is rat FcγRI (CD64), histidine-tagged recombinant (rat). The test is described as above.
Test [3] has as its target human FcγRI (CD64), histidine-tagged recombinant (human) (UniProt P12314). The test is described as above.
Test [4] concerns the target human FcγRIIIa (CD16a) F158 allele, histidine-tagged recombinant (human) (UniProt P08637). The description is as above.
The target of test [5] is human FcγRIIIa (CD16a) V158 allele, histidine-tagged recombinant (human) (UniProt P08637). The description is as above.
Sequence of human FcγRIIIa (CD16a) V158 allele, histidine-tagged recombinant (human) (P08637 17-208): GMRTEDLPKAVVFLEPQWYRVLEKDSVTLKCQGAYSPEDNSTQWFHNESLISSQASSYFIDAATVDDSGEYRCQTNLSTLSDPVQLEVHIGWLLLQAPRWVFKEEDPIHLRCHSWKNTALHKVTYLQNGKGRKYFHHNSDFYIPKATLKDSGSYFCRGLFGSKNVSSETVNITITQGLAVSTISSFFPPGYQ
The target of test [6] is human FcγRIIIb (CD16b) NA2 allele, histidine-tagged recombinant (human) (UniProt O75015). The test is described as above.
Sequence of human FcγRIIIb (CD16b) NA2 allele, histidine-tagged recombinant (human) (O75015 17-200): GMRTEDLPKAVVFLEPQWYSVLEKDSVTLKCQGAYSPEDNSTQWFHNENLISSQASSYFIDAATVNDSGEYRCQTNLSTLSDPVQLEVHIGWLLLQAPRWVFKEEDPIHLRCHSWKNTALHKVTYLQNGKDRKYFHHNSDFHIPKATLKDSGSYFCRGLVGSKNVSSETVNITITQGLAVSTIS
For test [7], the target named is human FcγRIIa (CD32a) R131 allele, histidine-tagged recombinant (human) (UniProt P12318). Described as above.
Sequence of human FcγRIIa (CD32a) R131 allele, histidine-tagged recombinant (human) (P12318 34-217): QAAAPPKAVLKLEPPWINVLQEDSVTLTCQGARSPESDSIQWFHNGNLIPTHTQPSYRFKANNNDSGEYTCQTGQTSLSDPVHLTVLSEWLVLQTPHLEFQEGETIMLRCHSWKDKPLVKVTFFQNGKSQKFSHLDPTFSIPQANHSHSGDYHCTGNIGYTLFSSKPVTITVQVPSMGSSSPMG
In test [8] the target is human FcγRIIb (CD32b), histidine-tagged recombinant (human) (UniProt P31994). The description is as above.
Sequence of human FcγRIIb (CD32b), histidine-tagged recombinant (human) (P31994 43-217): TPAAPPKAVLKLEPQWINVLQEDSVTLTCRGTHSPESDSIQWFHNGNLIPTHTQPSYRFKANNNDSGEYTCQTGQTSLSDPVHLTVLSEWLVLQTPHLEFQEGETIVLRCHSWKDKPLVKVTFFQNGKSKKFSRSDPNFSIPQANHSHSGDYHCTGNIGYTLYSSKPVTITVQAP
Test [9] concerns the target human FcRn, histidine-tagged recombinant (human) (UniProt P55899). Nature of the test: SPR; human FcRn immobilised directly on CM5 (EDC/NHS); antibody injected at 20 μg/mL (dose response in Fig 4); HBS-EP+ pH 6.0, 25°C; response normalised to wild type.

Sequence of human FcγRIIIa (CD16a) F158 allele, histidine-tagged recombinant (human) (P08637 17-208): as the sequence (P08637 17-208) above
Sequence of human FcγRI (CD64), histidine-tagged recombinant (human) (P12314 16-292): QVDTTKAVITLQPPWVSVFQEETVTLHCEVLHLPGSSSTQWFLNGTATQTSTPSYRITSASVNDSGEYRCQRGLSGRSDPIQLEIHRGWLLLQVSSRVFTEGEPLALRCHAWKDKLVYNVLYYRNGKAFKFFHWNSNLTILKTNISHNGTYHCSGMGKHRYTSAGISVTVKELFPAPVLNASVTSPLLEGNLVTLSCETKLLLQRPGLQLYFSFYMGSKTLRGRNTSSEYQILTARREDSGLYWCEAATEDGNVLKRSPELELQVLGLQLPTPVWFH
Sequence of human FcRn, histidine-tagged recombinant (human) (P55899 24-297, chain 1 of 2): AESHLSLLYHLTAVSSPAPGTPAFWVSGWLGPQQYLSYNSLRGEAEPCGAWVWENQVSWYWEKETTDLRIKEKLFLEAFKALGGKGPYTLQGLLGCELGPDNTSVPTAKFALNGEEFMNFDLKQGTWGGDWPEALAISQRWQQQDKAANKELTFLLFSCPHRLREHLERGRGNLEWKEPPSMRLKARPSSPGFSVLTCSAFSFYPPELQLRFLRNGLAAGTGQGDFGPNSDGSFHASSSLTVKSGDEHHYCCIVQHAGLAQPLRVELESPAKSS
Sequence of human FcRn, histidine-tagged recombinant (human) (P61769 21-119, chain 2 of 2, further chain): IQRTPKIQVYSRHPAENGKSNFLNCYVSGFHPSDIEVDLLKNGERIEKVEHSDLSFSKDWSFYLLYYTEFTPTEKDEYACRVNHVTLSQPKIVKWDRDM

As for “anti-CD3 IgG1 L234A/L235A (LALA) (antibody)”, the mean response in [1] was -3.3 RU; in test [2] it was -4.9 RU.
For “anti-CD3 IgG1 L234A/L235A/P329G (LALAPG) (antibody)” the same measures were -6.2 RU and -5.2 RU.
As for “anti-CD3 IgG1 L234G/L235S/G236R (antibody)”, the mean response was -5.2 RU in test [3]; -4.7 RU in [4]; -14.4 RU in test [5]; -6.4 RU in test [6]; -4.8 RU in test [7]; -5.1 RU in [8]. The mean response in test [1] is -5.9 RU; in [2], -4.2 RU.
For “anti-CD3 IgG1 L234S/L235T/G236R (antibody)”, the mean response in test [3] is -5.2 RU; in [4], 3.3 RU; in test [5] it was -11.3 RU; in test [6], 4.7 RU; in test [7] it was 1.4 RU; in test [8], 3.9 RU. The mean response is -7.5 RU in test [1] and -5.1 RU in test [2].
Turning to “anti-CD3 IgG1 L234S/L235V/G236R (antibody)”, the mean response in [3] is -5.4 RU; in test [4], -3.4 RU; in test [5] it was -12.7 RU; in test [6], -4.8 RU; in test [7] it was -3.4 RU; in test [8], -4.2 RU. The mean response in [1] is -8.1 RU; in test [2], -4.8 RU.
With “anti-CD3 IgG1 L234T/L235Q/G236R (antibody)”, the mean response in test [3] is -3.2 RU; in test [4], -0.9 RU; in test [5], -10.7 RU; in test [6] it was -3 RU; in [7], -0.2 RU; in test [8], -2.8 RU. Further, the mean response in test [1] is -5.8 RU; in test [2], -2.4 RU.
“anti-CD3 IgG1 L234T/L235T/G236R (antibody)”: the mean response in test [3] is -3.1 RU; in [4], -2 RU; in test [5], -8.6 RU; in [6] it was -4.4 RU; in [7] it was -2.8 RU; in test [8], -3.3 RU. The mean response was -5.5 RU in [1] and -3.5 RU in test [2].
On to “anti-CD20 IgG1 L234S/L235T/G236R (antibody)”, for which the mean response is -1.3 RU in test [3]; 1.9 RU in [4]; -6.3 RU in [5]; -3 RU in test [6]; 2.6 RU in test [7]; 0.5 RU in test [8]. For the same substance, the mean response in test [1] is -5.4 RU; in [2], -2.4 RU.
On to “anti-CD52 IgG1 L234A/L235A (LALA) (antibody)”, for which the mean normalised binding response (% of wild-type reference) in test [9] came out at 105%. Moreover, the mean response in test [3] was 452 RU; in [1], 1.8 RU; in test [2] it was -0.7 RU.
The matching figures for “anti-CD52 IgG1 L234A/L235A/P329G (LALAPG) (antibody)”: 105%, 33.7 RU, -2.1 RU and -0.8 RU.
Take “anti-CD52 IgG1 L234G/L235S/G236R (antibody)”: the mean normalised binding response (% of wild-type reference) in test [9] came to 118%. Further, the mean response in test [3] was -3.5 RU; in test [4] it was -4.2 RU; in test [5], -2.4 RU; in test [6], -4.8 RU; in [7], -3.5 RU; in test [8], -5.5 RU. Besides, the mean response in test [1] was -2.3 RU; in test [2], -1.7 RU.
As to “anti-CD52 IgG1 N297Q (aglycosyl) (antibody)”, in test [9], the mean normalised binding response (% of wild-type reference) amounted to 103%. The results for the mean response in test [3] and in test [1] were 431 RU and 50.4 RU, respectively.
